According to the supplement of paper PMC6757056:
± gives the standard deviation of the averaged measurements.

B1: library; a variant is named by its letters at N, in order (parent)
chain: GCUGUCACCGGUGCUUGGUACGUUAUAUUCAGCCGGUCUGAUGAGUCUNNNNNNAGACGAAACAGC

Tests used:
(6R,S)-folinic acid [1] = variants of: B1; experiment: FACS-Seq fitted mean relative fluorescence mCherry/BFP without ligand (log10 relative fluorescence); HEK293T overexpressing SLC46A1; higher = higher reporter protein expression; conditions: without (6R,S)-folinic acid; ligand present: no
Method in brief: (§1)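 Sorting into 6 bins by mCherry/BFP followed 48 h of incubation with or without ligand. The cells were enriched HEK293T libraries lentivirally bearing an mCherry reporter with the ribozyme switch and an EF1α-BFP marker, and bin genomic DNA was PCR-amplified, barcoded and sequenced on MiSeq. Fluorescence is the fitted normal mean of the bin counts. Means were fitted on log10(mCherry/BFP), scaled to five spiked-in control ribozymes.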

(6R,S)-folinic acid [2] = variants of: B1; experiment: normalized RNA/DNA level without ligand (relative to sTRSVctl = 100) (log10 (% of sTRSVctl)); HEK293T overexpressing SLC46A1; higher = less ribozyme self-cleavage, higher mRNA level; conditions: without (6R,S)-folinic acid; ligand present: no
Method in brief: (§2)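 Library plasmids encoding reporter-linked ribozyme switches (mCherry, or eGFP for some folinic acid experiments) were transfected into HEK293T at 4 µg per 6-well well. Ligand, when used, was added 1 h before transfection. Total RNA was extracted with EDTA 72 h later, then reverse-transcribed, amplified, barcoded and sequenced. RNA level was RNA reads over DNA reads, divided by a spiked-in non-cleaving control (or the top 25 sequences), ×100, log10; only sequences with ≥100 DNA reads were kept.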

(6R,S)-folinic acid [3] = variants of: B1; experiment: FACS-Seq fitted mean relative fluorescence mCherry/BFP with ligand (log10 relative fluorescence); HEK293T overexpressing SLC46A1; ligand concentration (+) FACS-Seq: 6 mM; higher = higher reporter protein expression; conditions: with (6R,S)-folinic acid; ligand present: yes
Method in brief: as §1

(6R,S)-folinic acid [4] = variants of: B1; experiment: normalized RNA/DNA level with ligand (relative to sTRSVctl = 100) (log10 (% of sTRSVctl)); HEK293T overexpressing SLC46A1; ligand concentration (+) RNA-Seq: 6 mM; higher = less ribozyme self-cleavage, higher mRNA level; conditions: with (6R,S)-folinic acid; ligand present: yes
Method in brief: as §2

Variant: GCUGUCACCGGUGCUUGGUACGUUAUAUUCAGCCGGUCUGAUGAGUCUAGGCUAAGACGAAACAGC [AGGCUA]
- FACS-Seq fitted mean (log10) ((6R,S)-folinic acid [1]): 0.50616 ± 0.00017
- normalized RNA/DNA level without ligand (log10) ((6R,S)-folinic acid [2]): 2.041 ± 0.0053
- FACS-Seq fitted mean (log10) ((6R,S)-folinic acid [3]): 0.407 ± 0.33
- normalized RNA/DNA level with ligand (log10) ((6R,S)-folinic acid [4]): 2.06 ± 0.037

Variant: GCUGUCACCGGUGCUUGGUACGUUAUAUUCAGCCGGUCUGAUGAGUCUAGGCUCAGACGAAACAGC [AGGCUC]
- FACS-Seq fitted mean (log10) ((6R,S)-folinic acid [1]): 0.131 ± 0.13
- normalized RNA/DNA level without ligand (log10) ((6R,S)-folinic acid [2]): 2.06 ± 0.041
- FACS-Seq fitted mean (log10) ((6R,S)-folinic acid [3]): -0.123 ± 0.11
- normalized RNA/DNA level with ligand (log10) ((6R,S)-folinic acid [4]): 2.01 ± 0.067

Variant: GCUGUCACCGGUGCUUGGUACGUUAUAUUCAGCCGGUCUGAUGAGUCUAGGGACAGACGAAACAGC [AGGGAC]
- FACS-Seq fitted mean (log10) ((6R,S)-folinic acid [1]): -0.124 ± 0.15
- normalized RNA/DNA level without ligand (log10) ((6R,S)-folinic acid [2]): 1.972 ± 0.011
- FACS-Seq fitted mean (log10) ((6R,S)-folinic acid [3]): 0.0745 ± 0.15
- normalized RNA/DNA level with ligand (log10) ((6R,S)-folinic acid [4]): 1.994 ± 0.01

Variant: GCUGUCACCGGUGCUUGGUACGUUAUAUUCAGCCGGUCUGAUGAGUCUAGGGAGAGACGAAACAGC [AGGGAG]
- FACS-Seq fitted mean (log10) ((6R,S)-folinic acid [1]): 0.271 ± 0.18
- normalized RNA/DNA level without ligand (log10) ((6R,S)-folinic acid [2]): 1.8747 ± 0.0018
- FACS-Seq fitted mean (log10) ((6R,S)-folinic acid [3]): 0.349 ± 0.099
- normalized RNA/DNA level with ligand (log10) ((6R,S)-folinic acid [4]): 1.99 ± 0.046

Variant: GCUGUCACCGGUGCUUGGUACGUUAUAUUCAGCCGGUCUGAUGAGUCUUGGCCAAGACGAAACAGC [UGGCCA]
- FACS-Seq fitted mean (log10) ((6R,S)-folinic acid [1]): 0.74 ± 0.1
- normalized RNA/DNA level without ligand (log10) ((6R,S)-folinic acid [2]): 2.04 ± 0.014
- FACS-Seq fitted mean (log10) ((6R,S)-folinic acid [3]): 0.432 ± 0.081
- normalized RNA/DNA level with ligand (log10) ((6R,S)-folinic acid [4]): 2.057 ± 0.014

Variant: GCUGUCACCGGUGCUUGGUACGUUAUAUUCAGCCGGUCUGAUGAGUCUUGGGCGAGACGAAACAGC [UGGGCG]
- FACS-Seq fitted mean (log10) ((6R,S)-folinic acid [1]): 0.142 ± 0.034
- normalized RNA/DNA level without ligand (log10) ((6R,S)-folinic acid [2]): 1.787 ± 0.014
- FACS-Seq fitted mean (log10) ((6R,S)-folinic acid [3]): 0.637 ± 0.097
- normalized RNA/DNA level with ligand (log10) ((6R,S)-folinic acid [4]): 2.009 ± 0.0047

Variant: GCUGUCACCGGUGCUUGGUACGUUAUAUUCAGCCGGUCUGAUGAGUCUUGGGCCAGACGAAACAGC [UGGGCC]
- FACS-Seq fitted mean (log10) ((6R,S)-folinic acid [1]): 0.229 ± 0.0089
- normalized RNA/DNA level without ligand (log10) ((6R,S)-folinic acid [2]): 2.048 ± 0.012
- FACS-Seq fitted mean (log10) ((6R,S)-folinic acid [3]): 0.157 ± 0.022
- normalized RNA/DNA level with ligand (log10) ((6R,S)-folinic acid [4]): 2.03 ± 0.0098

Variant: GCUGUCACCGGUGCUUGGUACGUUAUAUUCAGCCGGUCUGAUGAGUCUAGGCACAGACGAAACAGC [AGGCAC]
- FACS-Seq fitted mean (log10) ((6R,S)-folinic acid [1]): 0.308 ± 0.083
- normalized RNA/DNA level without ligand (log10) ((6R,S)-folinic acid [2]): 2.0376 ± 0.0006
- FACS-Seq fitted mean (log10) ((6R,S)-folinic acid [3]): 0.298 ± 0.11
- normalized RNA/DNA level with ligand (log10) ((6R,S)-folinic acid [4]): 2.02 ± 0.018

Variant: GCUGUCACCGGUGCUUGGUACGUUAUAUUCAGCCGGUCUGAUGAGUCUAGGCAUAGACGAAACAGC [AGGCAU]
- FACS-Seq fitted mean (log10) ((6R,S)-folinic acid [1]): 0.532 ± 0.008
- normalized RNA/DNA level without ligand (log10) ((6R,S)-folinic acid [2]): 1.982 ± 0.0087
- FACS-Seq fitted mean (log10) ((6R,S)-folinic acid [3]): 0.603 ± 0.48
- normalized RNA/DNA level with ligand (log10) ((6R,S)-folinic acid [4]): 2.02 ± 0.026

Variant: GCUGUCACCGGUGCUUGGUACGUUAUAUUCAGCCGGUCUGAUGAGUCUGGGCGGAGACGAAACAGC [GGGCGG]
- FACS-Seq fitted mean (log10) ((6R,S)-folinic acid [1]): 0.0567 ± 0.099
- normalized RNA/DNA level without ligand (log10) ((6R,S)-folinic acid [2]): 2.07 ± 0.027
- FACS-Seq fitted mean (log10) ((6R,S)-folinic acid [3]): 0.485 ± 0.0056
- normalized RNA/DNA level with ligand (log10) ((6R,S)-folinic acid [4]): 2.06 ± 0.045

Variant: GCUGUCACCGGUGCUUGGUACGUUAUAUUCAGCCGGUCUGAUGAGUCUGGGGAAAGACGAAACAGC [GGGGAA]
- FACS-Seq fitted mean (log10) ((6R,S)-folinic acid [1]): 0.571 ± 0.12
- normalized RNA/DNA level without ligand (log10) ((6R,S)-folinic acid [2]): 1.996 ± 0.0088
- FACS-Seq fitted mean (log10) ((6R,S)-folinic acid [3]): 0.428 ± 0.4
- normalized RNA/DNA level with ligand (log10) ((6R,S)-folinic acid [4]): 2.06 ± 0.034

Variant: GCUGUCACCGGUGCUUGGUACGUUAUAUUCAGCCGGUCUGAUGAGUCUCGGCAUAGACGAAACAGC [CGGCAU]
- FACS-Seq fitted mean (log10) ((6R,S)-folinic acid [1]): 0.32 ± 0.03
- normalized RNA/DNA level without ligand (log10) ((6R,S)-folinic acid [2]): 2.011 ± 0.0083
- FACS-Seq fitted mean (log10) ((6R,S)-folinic acid [3]): 0.52 ± 0.17
- normalized RNA/DNA level with ligand (log10) ((6R,S)-folinic acid [4]): 2.019 ± 0.02

Variant: GCUGUCACCGGUGCUUGGUACGUUAUAUUCAGCCGGUCUGAUGAGUCUGGGCAUAGACGAAACAGC [GGGCAU]
- FACS-Seq fitted mean (log10) ((6R,S)-folinic acid [1]): 0.273 ± 0.12
- normalized RNA/DNA level without ligand (log10) ((6R,S)-folinic acid [2]): 2.045 ± 0.01
- FACS-Seq fitted mean (log10) ((6R,S)-folinic acid [3]): 0.0697 ± 0.059
- normalized RNA/DNA level with ligand (log10) ((6R,S)-folinic acid [4]): 2.054 ± 0.0062

Variant: GCUGUCACCGGUGCUUGGUACGUUAUAUUCAGCCGGUCUGAUGAGUCUGGGGCCAGACGAAACAGC [GGGGCC]
- FACS-Seq fitted mean (log10) ((6R,S)-folinic acid [1]): -0.232 ± 0.1
- normalized RNA/DNA level without ligand (log10) ((6R,S)-folinic acid [2]): 2.05 ± 0.023
- FACS-Seq fitted mean (log10) ((6R,S)-folinic acid [3]): -0.6 ± 0.34
- normalized RNA/DNA level with ligand (log10) ((6R,S)-folinic acid [4]): 2.05 ± 0.015

Variant: GCUGUCACCGGUGCUUGGUACGUUAUAUUCAGCCGGUCUGAUGAGUCUCGGCUCAGACGAAACAGC [CGGCUC]
- FACS-Seq fitted mean (log10) ((6R,S)-folinic acid [1]): 0.213 ± 0.046
- normalized RNA/DNA level without ligand (log10) ((6R,S)-folinic acid [2]): 2.048 ± 0.0069
- FACS-Seq fitted mean (log10) ((6R,S)-folinic acid [3]): 0.269 ± 0.16
- normalized RNA/DNA level with ligand (log10) ((6R,S)-folinic acid [4]): 2.037 ± 0.014

Variant: GCUGUCACCGGUGCUUGGUACGUUAUAUUCAGCCGGUCUGAUGAGUCUUGGGAGAGACGAAACAGC [UGGGAG]
- FACS-Seq fitted mean (log10) ((6R,S)-folinic acid [1]): -0.0508 ± 0.0099
- normalized RNA/DNA level without ligand (log10) ((6R,S)-folinic acid [2]): 1.6 ± 0.025
- FACS-Seq fitted mean (log10) ((6R,S)-folinic acid [3]): 0.331 ± 0.024
- normalized RNA/DNA level with ligand (log10) ((6R,S)-folinic acid [4]): 1.93 ± 0.078

Variant: GCUGUCACCGGUGCUUGGUACGUUAUAUUCAGCCGGUCUGAUGAGUCUUGGGAUAGACGAAACAGC [UGGGAU]
- FACS-Seq fitted mean (log10) ((6R,S)-folinic acid [1]): 0.3975 ± 0.0017
- normalized RNA/DNA level without ligand (log10) ((6R,S)-folinic acid [2]): 1.86 ± 0.022
- FACS-Seq fitted mean (log10) ((6R,S)-folinic acid [3]): 0.547 ± 0.094
- normalized RNA/DNA level with ligand (log10) ((6R,S)-folinic acid [4]): 2 ± 0.046

Variant: GCUGUCACCGGUGCUUGGUACGUUAUAUUCAGCCGGUCUGAUGAGUCUCGGGACAGACGAAACAGC [CGGGAC]
- FACS-Seq fitted mean (log10) ((6R,S)-folinic acid [1]): -0.0861 ± 0.029
- normalized RNA/DNA level without ligand (log10) ((6R,S)-folinic acid [2]): 2.015 ± 0.0095
- FACS-Seq fitted mean (log10) ((6R,S)-folinic acid [3]): -0.418 ± 0.079
- normalized RNA/DNA level with ligand (log10) ((6R,S)-folinic acid [4]): 2.02 ± 0.032

Variant: GCUGUCACCGGUGCUUGGUACGUUAUAUUCAGCCGGUCUGAUGAGUCUCGGGAUAGACGAAACAGC [CGGGAU]
- FACS-Seq fitted mean (log10) ((6R,S)-folinic acid [1]): 0.211 ± 0.017
- normalized RNA/DNA level without ligand (log10) ((6R,S)-folinic acid [2]): 1.97 ± 0.029
- FACS-Seq fitted mean (log10) ((6R,S)-folinic acid [3]): 0.0466 ± 0.17
- normalized RNA/DNA level with ligand (log10) ((6R,S)-folinic acid [4]): 2 ± 0.049

Variant: GCUGUCACCGGUGCUUGGUACGUUAUAUUCAGCCGGUCUGAUGAGUCUCGGGAAAGACGAAACAGC [CGGGAA]
- FACS-Seq fitted mean (log10) ((6R,S)-folinic acid [1]): 0.288 ± 0.27
- normalized RNA/DNA level without ligand (log10) ((6R,S)-folinic acid [2]): 1.98 ± 0.024
- FACS-Seq fitted mean (log10) ((6R,S)-folinic acid [3]): 0.519 ± 0.063
- normalized RNA/DNA level with ligand (log10) ((6R,S)-folinic acid [4]): 2.02 ± 0.046

Variant: GCUGUCACCGGUGCUUGGUACGUUAUAUUCAGCCGGUCUGAUGAGUCUUGGCAGAGACGAAACAGC [UGGCAG]
- FACS-Seq fitted mean (log10) ((6R,S)-folinic acid [1]): 0.237 ± 0.02
- normalized RNA/DNA level without ligand (log10) ((6R,S)-folinic acid [2]): 1.76 ± 0.059
- FACS-Seq fitted mean (log10) ((6R,S)-folinic acid [3]): 0.61 ± 0.17
- normalized RNA/DNA level with ligand (log10) ((6R,S)-folinic acid [4]): 1.955 ± 0.013
